Sequences and labels used below:
B1: H3_(1-24)K9me3/K18C/K23C peptide (peptide)
peptide: not shown
modifications: trimethyl-lysine at K9
B2: bovine DNMT1 RFTS domain (residues 349-594) (domain or fragment)
chain: PKCTECLQYLDDPELRYEQHPPDAVEEIQILTNERLSIFDANESGFESYEDLPQHKLTCFSVYCKRGHLCPIDTGLIEKDVELLFSGSAKPIYEDDPSPEGGINGKNFGPINEWWIAGFDGGEKALLGFSTSFAEYILMDPSPEYAPLFSVMQEKIYISKIVVEFLQSNPDSTYEDLINKIETTVPPCMLNLNRFTEDSLLRHAQFVVEQVESYDRAGDSDEQPIFLSPCMRDLIKLAGVTLGKRR

Assay [1] concerns the target G76C-mutated ubiquitin (UniProt P0CG48 1-76, G76C). Nature of the assay: crystal structure.
Assay [2] has as its target B2. Nature of the assay: crystal structure.

Take B1: the binding result in assay [1] and in assay [2] was “binds” in each case.

As to B2, the binding result in assay [1] is given as “binds”.

For the origin of these results see doi:10.1101/2020.04.27.064493 (bioRxiv, 2020).
